Results: the supplement of paper PMC10065799, “High-throughput profiling of sequence recognition by tyrosine kinases and SH2 domains using bacterial peptide display” (eLife, 2023)

Key:
[1] = target: Grb2 SH2 (UniProt P62993); assay: SH2 binding enrichment of the phosphorylated peptide, bacterial display (enrichment ratio); higher = better substrate or ligand; peptides without Tyr show the background
[2] = target: c-Src SH2; assay: as above
[3] = target: SHP2-C SH2; assay: as above
[4] = target: FGFR3 (UniProt P22607); assay: phosphorylation enrichment, bacterial display (enrichment ratio); higher = better substrate or ligand; peptides without Tyr show the background
[5] = system: Fer (mouse); assay: as above
[6] = target: FGFR1 (UniProt P11362); assay: as above
[7] = target: Jak2 (UniProt O60674); assay: as above
Sequence of Jak2 (O60674 whole entry, looked up): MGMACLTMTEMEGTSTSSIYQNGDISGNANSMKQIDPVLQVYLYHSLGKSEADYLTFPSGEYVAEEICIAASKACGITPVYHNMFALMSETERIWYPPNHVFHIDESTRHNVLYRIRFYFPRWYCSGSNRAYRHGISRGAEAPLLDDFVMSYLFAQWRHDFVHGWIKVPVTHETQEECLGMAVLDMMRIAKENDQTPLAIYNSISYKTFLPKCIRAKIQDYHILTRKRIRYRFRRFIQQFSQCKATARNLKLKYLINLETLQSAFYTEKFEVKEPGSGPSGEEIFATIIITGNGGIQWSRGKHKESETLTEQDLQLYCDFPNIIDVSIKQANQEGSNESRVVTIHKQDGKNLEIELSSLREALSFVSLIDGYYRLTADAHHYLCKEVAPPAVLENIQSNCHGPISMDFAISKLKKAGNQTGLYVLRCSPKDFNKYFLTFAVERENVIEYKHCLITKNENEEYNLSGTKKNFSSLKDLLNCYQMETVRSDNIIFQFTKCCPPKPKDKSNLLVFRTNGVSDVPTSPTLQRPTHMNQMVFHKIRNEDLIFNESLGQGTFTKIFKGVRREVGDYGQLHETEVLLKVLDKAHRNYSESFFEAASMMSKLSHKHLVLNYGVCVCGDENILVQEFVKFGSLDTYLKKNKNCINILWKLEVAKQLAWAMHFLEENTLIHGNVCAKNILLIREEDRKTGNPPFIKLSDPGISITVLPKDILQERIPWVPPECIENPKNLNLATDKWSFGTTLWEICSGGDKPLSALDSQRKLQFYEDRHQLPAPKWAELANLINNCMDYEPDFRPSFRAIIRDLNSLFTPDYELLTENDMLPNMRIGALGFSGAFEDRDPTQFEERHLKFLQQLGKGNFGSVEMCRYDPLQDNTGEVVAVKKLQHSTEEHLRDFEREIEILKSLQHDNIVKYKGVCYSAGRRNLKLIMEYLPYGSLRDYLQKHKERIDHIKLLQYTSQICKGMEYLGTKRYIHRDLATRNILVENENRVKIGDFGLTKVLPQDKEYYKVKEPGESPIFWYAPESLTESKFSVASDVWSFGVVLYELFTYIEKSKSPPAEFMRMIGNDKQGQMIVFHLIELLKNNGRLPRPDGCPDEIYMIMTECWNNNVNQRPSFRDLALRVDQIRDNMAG

[8] = target: Hck (UniProt P08631); assay: as above
Sequence of Hck (P08631 whole entry, looked up): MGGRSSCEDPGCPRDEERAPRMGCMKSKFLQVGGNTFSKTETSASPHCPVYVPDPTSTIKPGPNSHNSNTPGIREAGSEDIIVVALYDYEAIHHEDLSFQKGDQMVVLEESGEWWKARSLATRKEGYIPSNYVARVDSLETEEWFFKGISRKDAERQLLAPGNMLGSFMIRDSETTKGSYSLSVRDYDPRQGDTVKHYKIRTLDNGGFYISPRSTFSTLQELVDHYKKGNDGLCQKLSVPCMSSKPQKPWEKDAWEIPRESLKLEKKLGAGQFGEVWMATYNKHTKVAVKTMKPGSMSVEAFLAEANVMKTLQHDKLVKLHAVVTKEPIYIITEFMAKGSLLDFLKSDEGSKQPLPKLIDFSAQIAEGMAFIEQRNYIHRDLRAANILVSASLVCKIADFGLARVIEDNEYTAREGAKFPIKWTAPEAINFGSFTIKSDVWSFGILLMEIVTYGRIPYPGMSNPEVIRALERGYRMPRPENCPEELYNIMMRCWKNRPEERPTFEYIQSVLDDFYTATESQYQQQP

[9] = target: EPHB2 (UniProt P29323); assay: as above
Sequence of EPHB2 (P29323 whole entry, looked up): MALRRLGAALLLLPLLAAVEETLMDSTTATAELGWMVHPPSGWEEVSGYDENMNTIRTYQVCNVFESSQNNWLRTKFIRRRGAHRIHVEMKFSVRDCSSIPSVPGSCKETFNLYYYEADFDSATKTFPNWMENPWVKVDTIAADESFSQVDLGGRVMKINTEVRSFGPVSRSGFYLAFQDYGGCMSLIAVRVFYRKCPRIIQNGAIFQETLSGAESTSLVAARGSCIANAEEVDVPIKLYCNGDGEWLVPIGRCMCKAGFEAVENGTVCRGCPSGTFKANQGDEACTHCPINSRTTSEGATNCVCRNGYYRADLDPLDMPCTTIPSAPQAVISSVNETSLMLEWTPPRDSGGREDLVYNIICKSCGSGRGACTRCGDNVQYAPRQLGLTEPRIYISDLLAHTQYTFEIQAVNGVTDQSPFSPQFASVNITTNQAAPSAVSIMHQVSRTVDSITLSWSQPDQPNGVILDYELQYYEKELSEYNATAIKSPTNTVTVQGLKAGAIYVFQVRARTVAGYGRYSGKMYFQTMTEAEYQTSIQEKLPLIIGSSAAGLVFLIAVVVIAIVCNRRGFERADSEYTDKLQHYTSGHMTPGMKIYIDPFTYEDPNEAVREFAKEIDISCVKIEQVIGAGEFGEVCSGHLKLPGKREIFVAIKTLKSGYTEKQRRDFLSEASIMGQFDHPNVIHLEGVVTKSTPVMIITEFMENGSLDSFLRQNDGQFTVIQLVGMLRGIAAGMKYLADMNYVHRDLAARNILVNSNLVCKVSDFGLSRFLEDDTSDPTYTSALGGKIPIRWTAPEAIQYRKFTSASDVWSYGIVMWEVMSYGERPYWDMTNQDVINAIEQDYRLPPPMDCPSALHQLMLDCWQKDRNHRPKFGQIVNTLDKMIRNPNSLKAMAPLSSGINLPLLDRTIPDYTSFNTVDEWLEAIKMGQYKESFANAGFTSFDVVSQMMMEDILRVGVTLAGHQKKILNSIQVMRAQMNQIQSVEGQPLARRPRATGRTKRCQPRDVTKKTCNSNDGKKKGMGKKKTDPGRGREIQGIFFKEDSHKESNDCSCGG

[10] = system: AncSZ; assay: as above
[11] = target: Fes (UniProt P07332); assay: as above
Sequence of Fes (P07332 whole entry, looked up): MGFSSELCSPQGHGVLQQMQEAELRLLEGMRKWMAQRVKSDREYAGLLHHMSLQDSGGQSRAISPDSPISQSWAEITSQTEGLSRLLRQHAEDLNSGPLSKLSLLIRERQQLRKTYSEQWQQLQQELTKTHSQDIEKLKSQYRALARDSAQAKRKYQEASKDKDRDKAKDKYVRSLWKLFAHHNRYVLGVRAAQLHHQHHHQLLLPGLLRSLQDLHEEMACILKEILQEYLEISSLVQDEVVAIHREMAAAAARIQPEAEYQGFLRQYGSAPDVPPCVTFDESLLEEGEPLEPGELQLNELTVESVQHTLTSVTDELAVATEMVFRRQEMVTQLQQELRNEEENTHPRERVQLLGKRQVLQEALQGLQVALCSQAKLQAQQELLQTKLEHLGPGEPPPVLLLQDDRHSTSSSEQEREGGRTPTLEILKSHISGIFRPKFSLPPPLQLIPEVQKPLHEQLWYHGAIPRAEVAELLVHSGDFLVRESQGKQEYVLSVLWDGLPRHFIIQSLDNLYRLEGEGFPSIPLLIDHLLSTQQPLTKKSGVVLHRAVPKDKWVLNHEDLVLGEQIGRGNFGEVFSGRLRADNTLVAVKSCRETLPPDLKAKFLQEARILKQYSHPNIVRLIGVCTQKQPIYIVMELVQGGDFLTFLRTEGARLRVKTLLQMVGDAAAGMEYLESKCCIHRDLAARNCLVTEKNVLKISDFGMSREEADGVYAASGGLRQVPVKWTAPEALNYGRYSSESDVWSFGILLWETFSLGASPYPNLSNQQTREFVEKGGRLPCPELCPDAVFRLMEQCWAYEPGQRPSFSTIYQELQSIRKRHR

[12] = target: EPHB1 (UniProt P54762); assay: as above
Sequence of EPHB1 (P54762 whole entry, looked up): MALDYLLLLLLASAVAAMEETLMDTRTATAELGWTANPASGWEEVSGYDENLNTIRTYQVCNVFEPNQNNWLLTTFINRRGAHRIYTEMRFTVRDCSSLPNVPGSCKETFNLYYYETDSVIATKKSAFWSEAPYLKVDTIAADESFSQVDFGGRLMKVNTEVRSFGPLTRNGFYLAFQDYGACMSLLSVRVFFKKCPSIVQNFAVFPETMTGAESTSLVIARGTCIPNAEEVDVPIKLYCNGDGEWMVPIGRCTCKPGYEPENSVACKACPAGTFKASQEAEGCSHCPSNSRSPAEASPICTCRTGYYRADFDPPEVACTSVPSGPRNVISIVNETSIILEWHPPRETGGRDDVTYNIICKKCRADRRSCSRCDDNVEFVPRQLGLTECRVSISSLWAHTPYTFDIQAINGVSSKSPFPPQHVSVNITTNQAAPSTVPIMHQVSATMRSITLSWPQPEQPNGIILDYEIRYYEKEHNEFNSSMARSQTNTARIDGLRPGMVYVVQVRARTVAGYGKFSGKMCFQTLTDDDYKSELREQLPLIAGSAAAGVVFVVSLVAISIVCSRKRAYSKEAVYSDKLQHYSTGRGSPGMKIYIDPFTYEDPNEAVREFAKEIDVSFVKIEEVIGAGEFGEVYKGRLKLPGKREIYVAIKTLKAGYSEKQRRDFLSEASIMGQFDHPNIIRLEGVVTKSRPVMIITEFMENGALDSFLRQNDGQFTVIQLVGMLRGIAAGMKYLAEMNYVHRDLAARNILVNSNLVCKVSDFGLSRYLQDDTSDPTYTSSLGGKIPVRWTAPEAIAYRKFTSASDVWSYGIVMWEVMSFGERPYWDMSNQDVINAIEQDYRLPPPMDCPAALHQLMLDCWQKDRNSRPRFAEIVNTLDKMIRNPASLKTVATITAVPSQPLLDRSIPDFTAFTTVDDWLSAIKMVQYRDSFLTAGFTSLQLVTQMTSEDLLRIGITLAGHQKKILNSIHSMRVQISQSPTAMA

[13] = target: Fyn (UniProt P06241); assay: as above
Sequence of Fyn (P06241 whole entry, looked up): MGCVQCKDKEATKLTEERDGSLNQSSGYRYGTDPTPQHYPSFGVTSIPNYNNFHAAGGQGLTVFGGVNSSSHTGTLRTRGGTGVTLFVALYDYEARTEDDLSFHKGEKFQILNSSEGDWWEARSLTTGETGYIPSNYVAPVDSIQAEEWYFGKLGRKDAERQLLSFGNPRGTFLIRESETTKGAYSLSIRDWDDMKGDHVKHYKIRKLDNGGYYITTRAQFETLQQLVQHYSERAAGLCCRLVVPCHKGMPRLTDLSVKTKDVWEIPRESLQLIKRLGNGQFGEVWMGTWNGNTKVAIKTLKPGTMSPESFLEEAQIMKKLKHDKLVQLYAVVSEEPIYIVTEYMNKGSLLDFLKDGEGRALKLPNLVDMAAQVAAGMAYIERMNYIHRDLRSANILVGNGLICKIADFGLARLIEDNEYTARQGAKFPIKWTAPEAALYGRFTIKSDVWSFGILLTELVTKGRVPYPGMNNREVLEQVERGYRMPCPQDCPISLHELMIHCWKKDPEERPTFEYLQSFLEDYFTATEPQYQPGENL

[14] = system: c-Abl (mouse); assay: as above
[15] = target: MERTK (UniProt Q12866); assay: as above
[16] = system: c-Src; assay: as above
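Wherever SH2 binding enrichment of the phosphorylated peptide, bacterial display is given: peptide library displayed on the E. coli surface as eCPX fusions, selected cells deep-sequenced, score is each peptide's frequency after selection divided by its frequency in the input.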
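Wherever phosphorylation enrichment, bacterial display is given: 11-residue human phosphosite peptides and single-mutation variants displayed on the E. coli surface, counted by deep sequencing, each peptide's frequency after selection divided by its frequency in the unselected input library; frequency after pTyr selection over input frequency; kinase dosed for 20-30% of maximal phosphorylation in three min.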

Sequence	SH2 binding enrichment [1]	SH2 binding enrichment [2]	SH2 binding enrichment [3]	phosphorylation enrichment [4]	phosphorylation enrichment [5]	phosphorylation enrichment [6]	phosphorylation enrichment [7]	phosphorylation enrichment [8]	phosphorylation enrichment [9]	phosphorylation enrichment [10]	phosphorylation enrichment [11]	phosphorylation enrichment [12]	phosphorylation enrichment [13]	phosphorylation enrichment [14]	phosphorylation enrichment [15]	phosphorylation enrichment [16]
QEIATYPRLLE [KRT14_Y415_R416P]	0.575	0.443	0.705	0.869	0.792	0.77	1.43	0.845	1.04	1.08	1.62	0.581	0.611	1.07	0.515	0.595
LAARFYNWVSF [FLT4_Y1231_YF]	1.26	1.25	1.61	1.56	2.55	1.27	1.1	0.476	0.605	1.44	1.55	0.69	0.51	0.988	1.02	0.82
NSFKYYMSDDI [ATRX_Y204_C200S]	0.943	1.05	0.746	0.659	0.501	0.567	0.871	0.443	0.542	0.87	1.01	0.503	0.434	0.627	0.451	0.499
FFVVRYCWLRR [MPZ_Y181_YF]	0.604	0.499	0.414	0.609	0.493	0.456	0.597	0.459	0.496	0.767	0.819	0.483	0.495	0.623	0.564	0.5
LDLSYYPTSSS [EMD_Y182]	0.853	1.24	0.66	3.28	0.835	3.94	5.02	0.947	1.18	2.17	1.81	1.21	0.762	1.41	0.955	0.72
GCRSKYVGLWR [KCNQ1_Y184_G189R]	1.18	0.802	0.744	0.591	0.42	0.382	0.395	0.36	0.325	0.638	0.519	0.411	0.401	0.409	0.394	0.365
KCLAVYQAGAR [APOE_Y180_R176C]	0.841	0.677	0.628	0.557	0.487	0.47	0.744	0.812	0.646	0.737	0.742	0.597	0.646	0.734	0.478	2.45
QDGFSYLSRQM [LDLR_Y847_P848L_YF]	0.983	0.406	0.557	0.995	0.636	0.872	0.844	0.748	0.797	0.985	1.07	0.584	0.772	0.563	0.413	0.461
FPKAHYHWLVL [APTX_Y214_R213H_YF]	1.86	1.54	1.7	1.87	0.645	2.69	0.864	0.444	0.491	0.819	1.29	0.448	0.447	0.716	0.619	0.396
KANEFYPVVLI [ADAMTS18_Y765_YF]	0.663	0.388	0.421	1.97	0.82	2.76	1.06	0.412	0.48	1.03	1.15	0.448	0.482	0.68	0.451	0.506
RLLRGHDQSAF [HLA-C_Y137_Y137H_YF]	0.89	0.657	0.718	0.47	0.357	0.427	0.732	0.566	0.389	0.79	0.738	0.465	0.501	0.653	0.421	0.573
ASFGPNTRVQS [FOXL2_Y258_Y258N_YF]	0.8	0.542	0.267	0.442	0.447	0.479	0.565	0.433	0.399	0.567	0.619	0.445	0.466	0.525	0.365	0.394
HHIDFYKKTTN [FGFR1_Y654_YF]	1.05	0.325	0.61	0.457	0.604	0.629	0.53	0.378	0.418	0.855	1.19	0.503	0.435	0.491	0.408	0.489
WDLTDYLMKIL [ACTB_Y188_R183W]	1.66	1.32	1.92	0.777	0.529	0.539	1.23	0.611	0.548	1.25	1.32	0.556	0.519	0.894	0.477	0.487
SYTDPYAQPPL [KMT2D_Y2378]	0.91	1.02	0.661	2.16	0.489	3.08	0.681	0.473	0.482	0.927	0.902	0.591	0.496	0.666	0.52	0.587
GYITSYREEEQ	0.646	0.49	0.573	0.711	0.616	0.595	1.15	0.543	0.659	1.29	1.37	0.677	0.554	0.879	0.442	0.463
EVESPYEVHDY [GIGYF2_Y1168]	0.86	0.485	0.599	0.792	9.16	0.489	1.03	1.13	0.84	1.66	1.1	0.785	4.95	0.762	0.567	4.25
LHRAHYDLCHT [AHSG_Y314_R317C]	1.13	2.25	0.935	0.648	0.516	0.513	0.88	0.47	0.542	0.814	1.12	0.572	0.401	0.777	0.435	0.495
DCPASYKKKSM [PDGFRA_Y768_R764C]	–	–	–	0.202	0.384	0.416	0.168	0.368	0.189	0.394	0.323	0.591	0.283	0.337	0.363	0.253

Continued, in another order:

SH2 binding enrichment [1]	SH2 binding enrichment [2]	SH2 binding enrichment [3]	Sequence	phosphorylation enrichment [4]	phosphorylation enrichment [5]	phosphorylation enrichment [6]	phosphorylation enrichment [7]	phosphorylation enrichment [8]	phosphorylation enrichment [9]	phosphorylation enrichment [10]	phosphorylation enrichment [11]	phosphorylation enrichment [12]	phosphorylation enrichment [13]	phosphorylation enrichment [14]	phosphorylation enrichment [15]	phosphorylation enrichment [16]
1.11	6.46	3.83	CSTIHYNYMCN [TP53_Y234_T230S]	0.585	0.555	0.545	0.656	0.399	0.542	0.784	0.758	0.586	0.461	0.411	0.375	0.435
0.724	0.466	0.583	TENAGYFFRVS	0.853	0.536	0.442	1.45	0.457	0.565	1.25	1.36	0.614	0.389	1.15	0.369	0.41
0.701	0.447	0.662	SQSKGYRPKLY [SIPA1L3_Y1376_G1371S]	0.33	0.364	0.424	0.496	0.361	0.337	0.719	0.651	0.336	0.344	0.519	0.51	0.408
0.627	0.355	0.777	QTEAQYRFIFM [PTPN11_Y511_YF]	1.02	0.785	0.893	1.78	0.688	0.467	1.18	1.92	0.774	0.612	1.82	0.58	0.702
0.758	0.464	0.553	ESAAIYNPVIY [RHO_Y301_K296E]	1.88	17.5	1.99	0.793	9.21	0.944	1.01	1.26	0.995	8.88	1.15	3.45	7.21
0.967	0.525	1.06	GKANRYFSPNF [PTEN_Y336_D331G]	0.685	0.477	0.455	0.811	0.398	0.424	0.622	0.612	0.379	0.479	0.779	0.46	0.528
0.879	0.459	0.769	VKPENYRRLDI [VHL_Y175]	0.463	0.305	0.615	0.298	0.331	0.324	0.473	0.48	0.58	0.351	0.345	0.337	0.324
1.17	2.17	3.49	PNQRRYVYYYS [PTEN_Y174_S170N]	1.61	0.817	3	1.37	1.29	1.57	2.88	2.29	1.07	1.86	0.841	3.81	1.06
0.964	22.2	8.86	LPVHFYSHVEH [PYGM_Y204_G205S]	1.29	1.26	0.651	1.71	0.852	0.878	1.13	1.63	1.05	0.689	1.2	0.859	1.21
0.598	0.476	0.552	VFFGSYSCPFG [NKAP_Y104_R106C_YF]	0.92	0.679	0.476	1.33	0.518	0.786	1.45	1.5	0.802	0.437	1.15	0.836	0.55
0.907	0.505	0.73	LEFAKYGSLRG [RET_Y809_V804L_YF]	0.459	0.373	0.316	0.593	0.567	0.792	0.567	0.644	0.37	0.398	0.454	0.388	0.43
0.939	0.749	1.02	YDYKKYGKGLR [ZNF445_Y433]	0.536	0.373	0.371	0.444	0.366	0.276	0.41	0.517	0.318	0.323	0.48	0.358	0.346
0.87	0.867	0.898	HAVYVYDICHV [TWNK_Y508]	1.41	6.45	1.59	1.01	4.08	6.29	1.68	1.31	5.08	7.09	1.18	5.12	5.04
0.762	0.387	0.836	PLDGEYFSLQI [TP53_Y327_T329S]	4.26	0.749	6.64	5.35	1.76	1.24	3.12	2.23	1.15	3.53	2.77	0.737	5.24
1.39	0.773	0.884	RVGVDYEGGGC [PLOD1_Y675]	–	–	–	0.377	–	–	–	–	–	–	0.239	–	0.287
